Assay [1] deals with T1, SARS-COV-2 RBD extracellular domain expressed with a C-terminal mouse IgG2a Fc (SARS-CoV-2). As to the kind of experiment: Biacore SPR, mAb captured on anti-hFc, 37 C.
In assay [2] the target is T1, SARS-COV-2 RBD extracellular domain …. As to the kind of experiment: Biacore SPR, mAb captured on anti-hFc, 25 C.

B1: mAb14312 (antibody, V domains shown)
VH: EVQLVESGGGLVQPGGSLRLSCAASGFTVSRSYMTWVRQAPGKGLEWVSVIFTGGRTDHADSVKGRFTISRHNSKNTLYLQMNSLRTEDTAVYYCARVAIVGATGAFDIWGQGTMVTVSS
VL: QSVLTQPPSVSGAPGQRVTISCTGSSSNIGAGDDVHWYQQLPGTAPKLLIYGNSNRPSGVPDRFSGSKSGTSASLAITGLQAEDEADYYCQSYDSSLSGSVVFGGGTKLTVLG
In assay [1], B1 registered a dissociation constant (Kd) of 34.7 pM, a koff of 5.8e-05 s⁻¹, an association rate constant (kon) of 1.67e+06 M⁻¹ s⁻¹ and a t½ of 3.32 h. Moreover, in assay [2], the equilibrium dissociation constant (Kd) was determined as 33.4 pM, the koff turned out to be 5.6e-05 s⁻¹, the kon came out at 1.68e+06 M⁻¹ s⁻¹ and the t½ worked out at 3.44 h.

B2: mAb13458 (antibody, V domains shown)
VH: EVQLVESGGGLVQPGRSLRLSCAASGFTFDDYAMHWVRQAPGKGLEWVSGISWNSGSIGYADSVKGRFTISRDNAKNSLYLQMNSLRAEDTALYYCAKDIGITTPYWGQGTLVTVSS
VL: AIQMTQSPSSLSASVGDRVTITCRASQDIRNDLGWYQQKPGKAPKLLIYSASSLQTGVPSRFSGSGSGTDFTLTISSLHPEDFATYYCLQDYWYTWTFGQGTKVEIKR
Take B2: in assay [1], binding was put at a Kd of 78.4 pM, the koff is 9.12e-05 s⁻¹, the on-rate (kon) amounted to 1.16e+06 M⁻¹ s⁻¹ and the t½ turned out to be 2.11 h. In addition, in assay [2], binding was put at a Kd of 64 pM, the koff was 7.55e-05 s⁻¹, the kon came to 1.18e+06 M⁻¹ s⁻¹ and the t½ was 2.55 h.

B3: mAb14313 (antibody, V domains shown)
VH: EVQLVESGGGLVQPGRSLRLSCVASGFTFDDSAMHWVRQPPGKGLEWVSGISWNSGIIGYAESVKGRFIISRDNAKNSLFLHMRGLRPEDTAVYYCARDRLELSYYYYGMDVWGQGTTVTVSS
VL: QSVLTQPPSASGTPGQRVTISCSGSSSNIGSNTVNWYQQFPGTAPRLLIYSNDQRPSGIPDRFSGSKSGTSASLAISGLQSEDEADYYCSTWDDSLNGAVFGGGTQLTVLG
Consider B3, for which, in assay [1], the Kd was determined as 58.2 pM, the koff amounted to 0.000146 s⁻¹, the kon stood at 2.52e+06 M⁻¹ s⁻¹ and the t½ was determined as 1.32 h. In assay [2], this molecule came in with a dissociation constant Kd of 42.2 pM, a dissociation rate constant (koff) of 9.97e-05 s⁻¹, a kon of 2.36e+06 M⁻¹ s⁻¹ and a t½ of 1.93 h.

B4: mAb14247 (antibody, V domains shown)
VH: QITLKESGPTLVKPTQTLTLTCTFSGFSLSTSAVGVGWIRQPPGKALEWLALIYWDDDKRYSPSLKSRLTITKDTSKNQLVLTMTNVDPVDTATYYCAHHTIQLIFDYWGQGTLVTVSS
VL: QSALTQPASVSGSPGQSITISCTATSSDVGNYNYVSWYQQHPGKAPKLMIYEVSNRPSGVSNRFSGSKSGNTASLTISGLQAEDEADYYCSSYTSSSTPLVFGGGTKLTVLG
In assay [1], B4 had a dissociation constant (Kd) of 127 pM, a koff of 0.00015 s⁻¹, a kon of 1.18e+06 M⁻¹ s⁻¹ and a t½ of 1.28 h. In assay [2], this molecule showed a Kd of 131 pM, a koff of 0.000156 s⁻¹, a kon of 1.19e+06 M⁻¹ s⁻¹ and a t½ of 1.23 h.

B5: mAb14294 (antibody, V domains shown)
VH: EVQLVESGGGLVQPGGSLRLSCAASGFTFSNHWMDWVRQAPGKGLVWVSRINSDGSSTDYADSVRGRFTMSRDNAKNTLYLQMSSLRAEDTAVYYCAREGMIFGAVIIPGWYFDLWGRGALVTVSS
VL: EIVLTQSPGTLSLSPGERATLSCRASQSVSSSQLAWYQQKPGQAPRLLIYGASSRATGIPDRFSGSGSGTDFTLTISRLEPEDFAVYYCQQYDSFGQGTKLEIKR
B5: in assay [1], binding was put at a Kd of 38.6 pM, the dissociation rate constant (koff) was 3.5e-05 s⁻¹, the on-rate constant (kon) is 906000 M⁻¹ s⁻¹ and the t½ turned out to be 5.5 h. In assay [2], binding was put at a Kd of 29.4 pM, the off-rate constant (koff) stood at 2.68e-05 s⁻¹, the kon was 911000 M⁻¹ s⁻¹ and the t½ is 7.17 h.

B6: mAb14289 (antibody, V domains shown)
VH: QVQLVQSGPEVKKPGASVKVSCKASGYTFTSYAISWVRQAPGQGLEWMGWISAYNGNTNYAQKLQGRVTMTTDTFTSTAYMELRSLRSDDTAVYYCAVPADHITFDYWGQGTLVTVSS
VL: EIVLTQSPGTLSLSPGERATLSCRASQSVSSYLAWYQQKPGQAPRLLIHGASSRATGIPDRFSGSGSGTDFTLTISRLEPEDFAVYYCQQYGSSFLTFGGGTKVEIKR
In assay [1], B6 came in with a dissociation constant (Kd) of 90.7 pM, an off-rate constant (koff) of 0.000128 s⁻¹, a kon of 1.41e+06 M⁻¹ s⁻¹ and a t½ of 1.5 h. In assay [2], this molecule gave a Kd of 62.8 pM, a koff of 8.95e-05 s⁻¹, a kon of 1.43e+06 M⁻¹ s⁻¹ and a t½ of 2.15 h.

B7: mAb14283 (antibody, V domains shown)
VH: QVQLQESGPGLVKPSGTLSLTCDVSGGSISSNNWWSWVRQRPGKGLQWIGEIYHNENTNYNPSLKSRVIMSIDKSKNQFSLKLTSVTAADTAVYYCARGDVLDWFDPWGQGTLVTVSS
VL: QSALTQPASVSGSPGQSTTISCTGTSSDVGGYNYVSWYQQYPGKAPKLMIYDVTNRPSGVSHRFSGSKSGNTASLTISGLQAEDEADYYCSSYTSSSTVIFGGGTKLTVLG
Turning to B7, in assay [1], the equilibrium dissociation constant (Kd) was 63.1 pM, the koff came to 9.59e-05 s⁻¹, the kon came out at 1.52e+06 M⁻¹ s⁻¹ and the t½ was 2.01 h. In assay [2], this molecule displayed an equilibrium dissociation constant (Kd) of 52.4 pM, a koff of 8.14e-05 s⁻¹, a kon of 1.55e+06 M⁻¹ s⁻¹ and a t½ of 2.37 h.

B8: mAb14284 (antibody, V domains shown)
VH: QITLKESGPTLVKPTQTLTLTCTFSGFSFSTSGVGVGWIRQPPGKTLEWLALIYWDDDKRYSPSLKSRLTITKDTSKNQVVLTMTNMDPVDTATYFCAHHGIPTIFGYWGQGALVTVSS
VL: QSALTQPASVSGSPGQSITISCTGTSSDLGVFNYVSWYQQHPGKAPKLMIYEVTNRPSGVSNRFSGSKSGNTASLTISGLQAEDEADYYCSSYTTSSTVFGGGTKLTVLG
In assay [1], B8 came in with a dissociation constant (Kd) of 27 pM, a koff of 2.24e-05 s⁻¹, an association rate constant (kon) of 830000 M⁻¹ s⁻¹ and a t½ of 8.6 h. In assay [2], this molecule registered a Kd of 25.5 pM, a koff of 2.12e-05 s⁻¹, a kon of 831000 M⁻¹ s⁻¹ and a t½ of 9.08 h.

B9: mAb14235 (antibody, V domains shown)
VH: QITLKESGPTLVKPTQTLTLTCTFSGFSLNTGGVGVGWIRQPPGNALEWLALIYWDDDKRYNPSLKTRLTISKDTSKNQVVLTMTNMDPVDTATYFCAHLTIAVIVDFWGQGTLVTVSS
VL: QSALTQPASVSGSPGQSITISCTATSSDVGTYNYVSWFQHHPGKAPKLMIYEVTNRPSGVSNRFSGSKSGNTASLTISGLQAEDEADYYCSSYTTTSIVFGGGTKLTVLG
On to B9, for which, in assay [1], the dissociation constant (Kd) was 61.2 pM, the koff is 6.68e-05 s⁻¹, the on-rate (kon) is 1.09e+06 M⁻¹ s⁻¹ and the t½ is 2.88 h. For the same molecule, in assay [2], the Kd was determined as 62.7 pM, the koff amounted to 6.89e-05 s⁻¹, the association rate constant (kon) was determined as 1.1e+06 M⁻¹ s⁻¹ and the t½ is 2.79 h.

B10: mAb14315 (antibody, V domains shown)
VH: QVQLVQSGAEVKKPGSSVKVSCKASGDTFSTYAINWVRQAPGQGLEWMGRFIHIFGTANYAQKFQGRVTITADESTSTAYMELRSLRSEDTAVYYCARDGVDYGDYRPDYWGQGTLVTVSS
VL: EIVLTQSPGTLSLSPGERATLSCRASQSVSSNYLAWYQQKPGQAPRLLIYGASSRATGIPERFSGSGSGTDFTLTISRLEPEDFAVYYCQQYGSSLYTFGQGTKLEIKR
In assay [1], B10 displayed a dissociation constant (Kd) of 90.3 pM, a koff of 7.91e-05 s⁻¹, an on-rate (kon) of 877000 M⁻¹ s⁻¹ and a t½ of 2.43 h. For the same molecule, in assay [2], binding was characterised by a dissociation constant (Kd) of 78.4 pM, the off-rate (koff) was found to be 6.26e-05 s⁻¹, the on-rate constant (kon) is 799000 M⁻¹ s⁻¹ and the t½ was 3.07 h.

The record behind these values is patent US20260069689A1 (Regeneron, published 2026).
